4 molecules from patent US20220002407A1 can be followed below.

The target in experiment [1] is CD19 on CD19-positive human tumor cells (Raji, Raji-Luc, NALM6, Reh) (human) (UniProt P15391). In words: cell-based or functional assay.
Experiment [2] addresses CD3 on human T cells (expanded CIK effector cells) (human) (UniProt P07766). Nature of the experiment: flow cytometry on expanded CD3-positive human T cells (CIK). Background: Flow cytometry measures light scatter and fluorescence of single cells or particles in a stream.
For experiment [3], the target named is CD19 on CD19-positive human tumor cells (Raji, Raji-Luc, NALM6, Reh) (human) (UniProt P15391). In words: flow cytometry on CD19-positive Raji cells, AF647 goat anti-human IgG detection.
In experiment [4] the target is CD3 on the membrane of CIK cells (T cells) of a cynomolgus monkey (cynomolgus monkey) (UniProt Q95LI5). In words: flow cytometry on cynomolgus monkey CIK (T) cells.
CD3 on the membrane of CIK cells (T cells) of a cynomolgus monkey (cynomolgus monkey), sequence (Q95LI5 22-198, chain 1 of 3): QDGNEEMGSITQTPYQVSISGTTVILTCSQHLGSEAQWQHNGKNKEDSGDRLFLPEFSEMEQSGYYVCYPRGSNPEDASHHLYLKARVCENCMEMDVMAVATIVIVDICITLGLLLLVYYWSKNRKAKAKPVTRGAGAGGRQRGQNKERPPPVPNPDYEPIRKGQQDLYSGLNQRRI
CD3 on the membrane of CIK cells (T cells) of a cynomolgus monkey (cynomolgus monkey), sequence (Q95LI8 22-171, chain 2 of 3, further chain): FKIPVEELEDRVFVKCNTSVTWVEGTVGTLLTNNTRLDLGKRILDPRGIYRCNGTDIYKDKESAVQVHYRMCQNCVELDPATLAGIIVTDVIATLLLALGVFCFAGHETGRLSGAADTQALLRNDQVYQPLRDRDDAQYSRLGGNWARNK
CD3 on the membrane of CIK cells (T cells) of a cynomolgus monkey (cynomolgus monkey), sequence (Q95LI7 23-181, chain 3 of 3, further chain): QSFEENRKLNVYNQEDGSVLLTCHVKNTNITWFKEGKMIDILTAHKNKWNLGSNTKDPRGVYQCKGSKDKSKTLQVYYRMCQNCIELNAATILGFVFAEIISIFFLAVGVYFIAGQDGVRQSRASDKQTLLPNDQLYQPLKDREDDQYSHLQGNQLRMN

CD3 on human T cells (expanded CIK effector cells) (human), sequence (P07766 23-207, chain 1 of 3): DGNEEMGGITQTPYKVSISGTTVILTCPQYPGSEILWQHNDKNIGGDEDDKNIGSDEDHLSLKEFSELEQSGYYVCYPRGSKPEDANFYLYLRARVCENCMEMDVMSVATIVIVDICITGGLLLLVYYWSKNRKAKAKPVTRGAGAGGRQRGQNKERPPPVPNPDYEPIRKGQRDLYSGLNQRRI
CD3 on human T cells (expanded CIK effector cells) (human), sequence (P04234 22-171, chain 2 of 3, further chain): as the sequence (Q95LI8 22-171, chain 2 of 3, further chain) above, with V5I, K15N, V20I, T32S, N33D, N34I, A64T, N74S, L83V, R141H counted along it
CD3 on human T cells (expanded CIK effector cells) (human), sequence (P09693 23-182, chain 3 of 3, further chain): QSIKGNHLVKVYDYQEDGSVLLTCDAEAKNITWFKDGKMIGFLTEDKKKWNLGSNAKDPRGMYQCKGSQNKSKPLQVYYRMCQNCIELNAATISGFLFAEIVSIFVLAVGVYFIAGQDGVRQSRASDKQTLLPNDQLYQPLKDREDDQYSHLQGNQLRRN
CD19 on CD19-positive human tumor cells (Raji, Raji-Luc, NALM6, Reh) (human), sequence (P15391 20-556): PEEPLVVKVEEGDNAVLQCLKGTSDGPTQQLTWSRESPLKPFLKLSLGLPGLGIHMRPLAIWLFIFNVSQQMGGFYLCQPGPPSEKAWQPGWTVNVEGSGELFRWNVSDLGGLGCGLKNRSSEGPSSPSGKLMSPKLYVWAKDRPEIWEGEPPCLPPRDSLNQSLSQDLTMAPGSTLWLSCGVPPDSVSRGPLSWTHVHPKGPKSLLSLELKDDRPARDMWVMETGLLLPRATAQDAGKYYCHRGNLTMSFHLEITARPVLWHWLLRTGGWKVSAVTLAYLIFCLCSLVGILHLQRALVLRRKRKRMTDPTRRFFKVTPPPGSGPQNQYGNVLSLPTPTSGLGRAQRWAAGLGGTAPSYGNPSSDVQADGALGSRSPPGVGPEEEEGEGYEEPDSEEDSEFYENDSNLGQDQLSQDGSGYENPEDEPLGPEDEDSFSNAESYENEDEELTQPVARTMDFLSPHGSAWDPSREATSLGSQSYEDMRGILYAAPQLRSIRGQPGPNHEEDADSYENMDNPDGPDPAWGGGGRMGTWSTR

B1: bispecific antibody AB23P9 (anti-CD19×CD3) (bispecific antibody)
chain: QVQLQESGPGLVKPTQTLSLTCTVSGGSISTSGMGVGWIRQHPGKGLEWIGHIWWDDDKRYNPALKSRVTISVDTSKNQVFLKLSSVTAADTAVYYCARMELWSYYFDYWGQGTTVTVSSGGGGSGGGGSGGGGSEIVLTQSPATLSLSPGERATITCRASQSVSYMHWYQQKPGQAPRLLIYDASNRASGVPSRFSGSGSGTDFTLTISSLEPEDAATYYCFQGSVYPFTFGQGTKLEIKGGGGGGSGGGGSGGGGSSSSSKAPPPSEVQLLESGGGLVQPGGSLKLSCAASGFTFNTYAMNWVRQAPGKGLEWVARIRSKYNNYATYYADSVKDRFTISRDDSKNTAYLQMNNLKTEDTAVYYCVRHGNFGNSYVSWFAYWGQGTLVTVSSGGGGSGGGGSGGGGSELVVTQEPSLTVSPGGTVTLTCRSSTGAVTTSNYANWVQQKPGQAPRGLIGGTNKRAPGTPARFSGSLLGGKAALTLSGVQPEDEAEYYCALWYSNLWVFGGGTKLTVLDKTHTCPPCPAPEAAGGPSVFLFPPKPKDQLMISRTPEVTCVVVDVSHEDPEVKFNWYVDGVEVHNAKTKPREEQYASTYRVVSVLTVLHQDWLNGKEYKCKVSNKALPASIEKTISKAKGQPREPQVYTLPPSRDELTKNQVSLTCLVKGFYPSDIAVEWESNGQPENNYKTTPPVLDSDGSFFLYSKLTVDKSRWQQGNVFSCSVLHEALHNHYTQKSLSLSPG
modifications: Homodimer: two identical copies of this chain, joined by covalent (hinge disulfide) bonds; one copy is given.
One may read the EC50 as the concentration at which the effect is half-maximal. With B1, in experiment [1], the EC50 of activation of NFAT-RE luciferase reporter Jurkat T cells in the presence of Raji target cells came out at 0.853 nM, the EC50 to mediate CIK to kill tumor cells (Raji-LUC) came to 0.148 pM and the EC50 to mediate PBMCs to kill tumor cells (Raji-LUC) worked out at 1.01 pM. Moreover, the half-maximal effective concentration (EC50) in experiment [2] is 49.5 nM. Also, the EC50 in experiment [3] was 2.6 nM.

B2: bispecific antibody AB23P10 (anti-CD19×CD3) (bispecific antibody)
chain: QVQLQESGPALVKPTQTLTLTCTFSGFSLSTSGMGVGWIRQPPGKALEWLAHIWWDDDKRYNPALKSRLTISKDTSKNQVFLTMTNMDPVDTATYYCARMELWSYYFDYWGQGTLVTVSSGGGGSGGGGSGGGGSENVLTQSPATLSVTPGEKATLSCSASSSVSYMHWYQQKPGQAPRLLIYDTSKLASGIPARFSGSGSGTDHTLTISSLEAEDVAVYYCFQGSVYPFTFGQGTKLEIKGGGGGGSGGGGSGGGGSSSSSKAPPPSEVQLLESGGGLVQPGGSLKLSCAASGFTFNTYAMNWVRQAPGKGLEWVARIRSKYNNYATYYADSVKDRFTISRDDSKNTAYLQMNNLKTEDTAVYYCVRHGNFGNSYVSWFAYWGQGTLVTVSSGGGGSGGGGSGGGGSELVVTQEPSLTVSPGGTVTLTCRSSTGAVTTSNYANWVQQKPGQAPRGLIGGTNKRAPGTPARFSGSLLGGKAALTLSGVQPEDEAEYYCALWYSNLWVFGGGTKLTVLDKTHTCPPCPAPEAAGGPSVFLFPPKPKDQLMISRTPEVTCVVVDVSHEDPEVKFNWYVDGVEVHNAKTKPREEQYASTYRVVSVLTVLHQDWLNGKEYKCKVSNKALPASIEKTISKAKGQPREPQVYTLPPSRDELTKNQVSLTCLVKGFYPSDIAVEWESNGQPENNYKTTPPVLDSDGSFFLYSKLTVDKSRWQQGNVFSCSVLHEALHNHYTQKSLSLSPG
modifications: Homodimer: two identical copies of this chain, joined by covalent (hinge disulfide) bonds; one copy is given.
In the case of B2, in experiment [1], the EC50 of activation of NFAT-RE luciferase reporter Jurkat T cells in the presence of Raji target cells came to 0.709 nM, the EC50 to mediate CIK to kill different tumor cells (NALM6) is 4.4 pM, the EC50 to mediate CIK to kill different tumor cells (Reh) stood at 1.64 pM and the EC50 to mediate CIK to kill tumor cells (Raji-LUC) was determined as 0.128 pM. In experiment [1], this molecule yielded an EC50 to mediate CIK to kill tumor cells (Raji-LUC, second row without label) of 0.483 pM; an EC50 to mediate PBMCs to kill tumor cells (Raji-LUC) of 0.946 pM; an EC50 to mediate PBMCs to kill tumor cells (Raji-LUC, second row without label) of 1.25 pM; an EC50 to mediate PBMCs to kill tumor cells (Raji-LUC, third row without label) of 4.18 pM. Also, the EC50 in experiment [4] was 5.5 nM. Besides, in experiment [2], the EC50 is 32.4 nM. In addition, in experiment [3], the EC50 was 2.68 nM.

B3: bispecific antibody AB23P7 (anti-CD19×CD3) (bispecific antibody)
chain: QVQLQESGPGLVKPSQTLSLTCTVSGGSISTSGMGVGWIRQHPGKGLEWIGHIWWDDDKRYNPALKSRVTISVDTSKNQFSLKLSSVTAADTAVYYCARMELWSYYFDYWGQGTLVTVSSGGGGSGGGGSGGGGSEIVLTQSPATLSLSPGERATLSCSASSSVSYMHWYQQKPGQAPRLLIYDTSKLASGIPARFSGSGSGTDFTLTISSLEPEDVAVYYCFQGSVYPFTFGQGTKLEIKGGGGGGSGGGGSGGGGSSSSSKAPPPSEVQLLESGGGLVQPGGSLKLSCAASGFTFNTYAMNWVRQAPGKGLEWVARIRSKYNNYATYYADSVKDRFTISRDDSKNTAYLQMNNLKTEDTAVYYCVRHGNFGNSYVSWFAYWGQGTLVTVSSGGGGSGGGGSGGGGSELVVTQEPSLTVSPGGTVTLTCRSSTGAVTTSNYANWVQQKPGQAPRGLIGGTNKRAPGTPARFSGSLLGGKAALTLSGVQPEDEAEYYCALWYSNLWVFGGGTKLTVLDKTHTCPPCPAPEAAGGPSVFLFPPKPKDQLMISRTPEVTCVVVDVSHEDPEVKFNWYVDGVEVHNAKTKPREEQYASTYRVVSVLTVLHQDWLNGKEYKCKVSNKALPASIEKTISKAKGQPREPQVYTLPPSRDELTKNQVSLTCLVKGFYPSDIAVEWESNGQPENNYKTTPPVLDSDGSFFLYSKLTVDKSRWQQGNVFSCSVLHEALHNHYTQKSLSLSPG
modifications: Homodimer: two identical copies of this chain, joined by covalent (hinge disulfide) bonds; one copy is given.
Consider B3, for which, in experiment [1], the EC50 of activation of NFAT-RE luciferase reporter Jurkat T cells in the presence of Raji target cells is 1.08 nM; the EC50 to mediate CIK to kill different tumor cells (Reh) stood at 1.71 pM; the EC50 to mediate CIK to kill tumor cells (Raji-LUC) stood at 0.699 pM; the EC50 to mediate CIK to kill tumor cells (Raji-LUC, second row without label) was determined as 0.202 pM. Besides, in experiment [1], the EC50 to mediate PBMCs to kill tumor cells (Raji-LUC) came to 1.23 pM and the EC50 to mediate PBMCs to kill tumor cells (Raji-LUC, second row without label) came to 1.25 pM. In experiment [4], the EC50 was 5.5 nM. Besides, the EC50 in experiment [2] came to 15.7 nM. Further, in experiment [3], the EC50 worked out at 1.39 nM.

B4: bispecific antibody AB23P8 (anti-CD19×CD3) (bispecific antibody)
chain: QVTLRESGPALVKPTQTLTLTCTFSGFSLSTSGMGVGWIRQPPGKALEWLAHIWWDDDKRYNPALKSRLTISKDTSKNQVFLTMTNMDPVDTATYYCARMELWSYYFDYWGQGTTVTVSSGGGGSGGGGSGGGGSENVLTQSPATLSVTPGEKATITCRASQSVSYMHWYQQKPGQAPRLLIYDASNRASGVPSRFSGSGSGTDHTLTISSLEAEDAATYYCFQGSVYPFTFGQGTKLEIKGGGGGGSGGGGSGGGGSSSSSKAPPPSEVQLLESGGGLVQPGGSLKLSCAASGFTFNTYAMNWVRQAPGKGLEWVARIRSKYNNYATYYADSVKDRFTISRDDSKNTAYLQMNNLKTEDTAVYYCVRHGNFGNSYVSWFAYWGQGTLVTVSSGGGGSGGGGSGGGGSELVVTQEPSLTVSPGGTVTLTCRSSTGAVTTSNYANWVQQKPGQAPRGLIGGTNKRAPGTPARFSGSLLGGKAALTLSGVQPEDEAEYYCALWYSNLWVFGGGTKLTVLDKTHTCPPCPAPEAAGGPSVFLFPPKPKDQLMISRTPEVTCVVVDVSHEDPEVKFNWYVDGVEVHNAKTKPREEQYASTYRVVSVLTVLHQDWLNGKEYKCKVSNKALPASIEKTISKAKGQPREPQVYTLPPSRDELTKNQVSLTCLVKGFYPSDIAVEWESNGQPENNYKTTPPVLDSDGSFFLYSKLTVDKSRWQQGNVFSCSVLHEALHNHYTQKSLSLSPG
modifications: Homodimer: two identical copies of this chain, joined by covalent (hinge disulfide) bonds; one copy is given.
For the molecule B4, in experiment [1], the EC50 of activation of NFAT-RE luciferase reporter Jurkat T cells in the presence of Raji target cells was found to be 1.12 nM, the EC50 to mediate CIK to kill tumor cells (Raji-LUC) stood at 0.586 pM and the EC50 to mediate PBMCs to kill tumor cells (Raji-LUC) amounted to 1.02 pM. Besides, the EC50 in experiment [2] was determined as 16.7 nM. The molecule further gave an EC50 in experiment [3] of 1.92 nM.
